Assay results as given in PMC6106110, “Aspf2 From Aspergillus fumigatus Recruits Human Immune Regulators for Immune Evasion and Cell Damage” (Frontiers in Immunology, 2018).
Read-outs that look alike come from different tables or passages of the source.

Key:
[1] = biological target: Recombinant Aspf2 (A. fumigatus) lacking the N-terminal 19-amino acid signal peptide, His-tagged (Aspergillus fumigatus) (UniProt P79017); assay: BLI; Aspf2 loaded on Ni(II)-NTA biosensor; analyte Factor H 190-3,000 nM (150 s association, 150 s dissociation) or plasminogen 687.5-5,500 nM (200 s each); buffer control subtracted, BLITZ software
[2] = biological target: Aspf2 expressed on the surface of A. fumigatus conidia (Aspergillus fumigatus (endogenous in CEA17 ΔakuB^Ku80 conidia)) (UniProt P79017); assay: flow cytometry on cells; wild-type, Δaspf2 and aspf2^C conidia (BSA-treated) incubated with increasing amounts of purified Factor H, FHL-1, FHR1 or plasminogen 1 h at RT; bound protein detected with antibodies; median fluorescence intensity
[3] = biological target: Aspf2 expressed on the surface of A. fumigatus conidia (Aspergillus fumigatus (endogenous in CEA17 ΔakuB^Ku80 conidia)) (UniProt P79017); assay: as above; remark: listed apart in the source
Human Factor H = biological target: T1, Human Factor H (human, UniProt P08603 19-1231); assay: BLI; Aspf2 loaded on Ni(II)-NTA biosensor; analyte Factor H 190-3,000 nM (150 s association, 150 s dissociation) or plasminogen 687.5-5,500 nM (200 s each); buffer control subtracted, BLITZ software; settings: both partners purified
T1 construct: human complement Factor H, 150-kDa plasma protein composed of 20 short conserved repeats (SCR); also called NHS derived Factor H; source: bought: CompTech (purified human Factor H); also in normal human serum (NHS-EDTA) and C3 depleted serum
T1 sequence (P08603 19-1231): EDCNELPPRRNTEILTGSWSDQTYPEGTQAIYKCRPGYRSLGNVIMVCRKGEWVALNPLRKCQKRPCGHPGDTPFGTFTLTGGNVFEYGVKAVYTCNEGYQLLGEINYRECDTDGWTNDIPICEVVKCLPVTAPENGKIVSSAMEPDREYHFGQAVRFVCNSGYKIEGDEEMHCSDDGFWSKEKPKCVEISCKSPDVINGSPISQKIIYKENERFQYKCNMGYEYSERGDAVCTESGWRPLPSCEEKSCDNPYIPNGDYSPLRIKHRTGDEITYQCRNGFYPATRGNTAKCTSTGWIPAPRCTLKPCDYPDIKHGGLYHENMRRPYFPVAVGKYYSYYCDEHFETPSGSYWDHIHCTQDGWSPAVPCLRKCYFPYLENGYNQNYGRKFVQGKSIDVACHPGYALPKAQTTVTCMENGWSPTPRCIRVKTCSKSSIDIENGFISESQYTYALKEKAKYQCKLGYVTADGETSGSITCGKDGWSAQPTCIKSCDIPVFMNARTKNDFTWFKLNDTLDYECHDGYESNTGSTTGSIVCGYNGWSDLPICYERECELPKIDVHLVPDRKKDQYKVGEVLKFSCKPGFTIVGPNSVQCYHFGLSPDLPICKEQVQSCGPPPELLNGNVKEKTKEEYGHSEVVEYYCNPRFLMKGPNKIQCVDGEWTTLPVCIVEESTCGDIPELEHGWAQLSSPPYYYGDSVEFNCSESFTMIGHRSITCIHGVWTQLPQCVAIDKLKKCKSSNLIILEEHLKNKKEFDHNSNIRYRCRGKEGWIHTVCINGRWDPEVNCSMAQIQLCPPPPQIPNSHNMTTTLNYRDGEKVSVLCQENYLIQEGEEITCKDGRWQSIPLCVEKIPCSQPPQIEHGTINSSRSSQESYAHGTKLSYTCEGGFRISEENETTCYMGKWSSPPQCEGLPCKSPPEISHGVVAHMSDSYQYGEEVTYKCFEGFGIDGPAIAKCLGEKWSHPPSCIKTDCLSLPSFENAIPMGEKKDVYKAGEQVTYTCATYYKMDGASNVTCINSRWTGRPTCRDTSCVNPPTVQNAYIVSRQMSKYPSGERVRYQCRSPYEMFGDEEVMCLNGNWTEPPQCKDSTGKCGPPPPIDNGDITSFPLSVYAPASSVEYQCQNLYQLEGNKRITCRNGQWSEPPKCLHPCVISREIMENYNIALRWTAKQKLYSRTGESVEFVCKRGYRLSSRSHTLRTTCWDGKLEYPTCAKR

Molecule Human plasminogen (natural protein) has a Kd [1] of 846 nM, a percent lower binding to Δaspf2 conidia than to wild-type conidia (plasminogen at 20 µg/ml) [2] of 31% and a percent lower binding to Δaspf2 conidia than to wild-type conidia (plasminogen at 20 µg/ml) [3] of 24%.

B1: Recombinant Aspf2 (A. fumigatus) lacking the N-terminal 19-amino acid signal peptide, His-tagged (natural protein, Aspergillus fumigatus, UniProt P79017 20-310, looked up)
chain: TLPTSPVPIAARATPHEPVFFSWDAGAVTSFPIHSSCNATQRRQIEAGLNEAVELARHAKAHILRWGNESEIYRKYFGNRPTMEAVGAYDVIVNGDKANVLFRCDNPDGNCALEGWGGHWRGANATSETVICDRSYTTRRWLVSMCSQGYTVAGSETNTFWASDLMHRLYHVPAVGQGWVDHFADGYDEVIALAKSNGTESTHDSEALQYFALEAYAFDIAAPGVGCAGESHGPDQGHDTGSASAPASTSTSSSSSGSGSGATTTPTDSPSATIDVPSNCHTHEGGQLHCT
notes: Aspf2 of Aspergillus fumigatus, a 310 amino acid-long protein; cloned from cDNA of strain CEA17 akuB^KU80 without the N-terminal 19-amino acid signal peptide; also called ΔN19AspF2; source: Pichia pastoris X33 (pPICZαB), culture supernatant, purified (HisTrap column)
B1 gave a Kd (Human Factor H) of 76 nM.
